Assay results as given in article PMC10183829 (2023).

B1: mCh-HsC53 [human] / GST-ATG8A [Arabidopsis thaliana] (parent complex)
chain 1: MEDHQHVPIDIQTSKLLDWLVDRRHCSLKWQSLVLTIREKINAAIQDMPESEEIAQLLSGSYIHYFHCLRILDLLKGTEASTKNIFGRYSSQRMKDWQEIIALYEKDNTYLVELSSLLVRNVNYEIPSLKKQIAKCQQLQQEYSRKEEECQAGAAEMREQFYHSCKQYGITGENVRGELLALVKDLPSQLAEIGAAAQQSLGEAIDVYQASVGFVCESPTEQVLPMLRFVQKRGNSTVYEWRTGTEPSVVERPHLEELPEQVAEDAIDWGDFGVEAVSEGTDSGISAEAAGIDWGIFPESDSKDPGGDGIDWGDDAVALQITVLEAGTQAPEGVARGPDALTLLEYTETRNQFLDELMELEIFLAQRAVELSEEADVLSVSQFQLAPAILQGQTKEKMVTMVSVLEDLIGKLTSLQLQHLFMILASPRYVDRVTEFLQQKLKQSQLLALKKELMVQKQQEALEEQAALEPKLDLLLEKTKELQKLIEADISKRYSGRPVNLMGTSL
chain 2: MAKSSFKISNPLEARMSESSRIREKYPDRIPVIVEKAGQSDVPDIDKKKYLVPADLTVGQFVYVVRKRIKLGAEKAIFVFVKNTLPPTAALMSAIYEEHKDEDGFLYMTYSGENTFG

Variants of: B1
Assay: microscopy-based protein-protein interaction assay (on-bead binding, confocal); 1 μM C53 protein; glutathione-sepharose beads with GST-ATG8A; read off a plot

| Variant | response |
| --- | --- |
| chain 1 MEDHQHVPIDIQTSKLLDWLVDRRHCSLKWQSLVLTIREKINAAIQDMPESEEIAQLLSGSYIHYFHCLRILDLLKGTEASTKNIFGRYSSQRMKDWQEIIALYEKDNTYLVELSSLLVRNVNYEIPSLKKQIAKCQQLQQEYSRKEEECQAGAAEMREQFYHSCKQYGITGENVRGELLALVKDLPSQLAEIGAAAQQSLGEAIDVYQASVGFVCESPTEQVLPMLRFVQKRGNSTVYEWRTGTEPSVVERPHLEELPEQVAEDAIDAGDFGVEAVSEGTDSGISAEAAGIDAGIFPESDSKDPGGDGIDAGDDAVALQITVLEAGTQAPEGVARGPDALTLLEYTETRNQFLDELMELEIFLAQRAVELSEEADVLSVSQFQLAPAILQGQTKEKMVTMVSVLEDLIGKLTSLQLQHLFMILASPRYVDRVTEFLQQKLKQSQLLALKKELMVQKQQEALEEQAALEPKLDLLLEKTKELQKLIEADISKRYSGRPVNLMGTSL [chain 1 W269A, chain 1 W294A, chain 1 W312A] | ~0.25 normalized fluorescence |
